From the RNAGym collection of RNA variant scans (doi:10.1073/pnas.2313332121)

B1: TPR t1 (parent)
chain: GACCAAUCUGCCCUCAGAGCUCGAGAACAUCUUCGGAUGCAGAGGAGGCAGGCUUCGGUGGCGCGAUAGCGCCAACGUCCUCAACCUCCAAUGCAUCCCACCACAUGAUGAUGCCUGAAGAGCCUUGGUUUUUUG

Variants of: B1
Assay: polymerase ribozyme fitness, log enrichment relative to wild type (log ratio); higher = more active; in vitro selection for triplet polymerase activity
How it was run: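 Only genotypes with ≥10 input reads and ≥1 read per output were kept after Illumina sequencing of input and output libraries. These libraries were PCR-built, transcribed mutants of each subunit of a heterodimeric triplet polymerase ribozyme, each put through one triplicate in vitro selection round with frozen incubation at −7 °C, gel excision of extended constructs, streptavidin-bead capture and RT-PCR. Fitness is a logarithmic ratio of genotype enrichment to wild-type enrichment, from inverse-variance-weighted replicate averages, with the logarithm in base 2.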

Row | Variant | polymerase ribozyme fitness (log ratio)
1 | C49A G71U C89A U130C | -2.94
2 | G48C G57A G63A G93U G127A | -4.97
3 | C49G C62U C88A A95C U130G | -4.6
4 | C49A U54A G60U U81A G128U | -2
5 | G48C C73G G93A | -1.8
6 | C49A C70A G120C U126C U131G | -1.57
7 | C49G A50U C72U | -1.85
8 | C49A G71U U92A C123U | -2.65
9 | C49A G61U A83C U129C | -0.881
10 | G48C C76U C88U | -1.76
11 | C49A G60A | -0.214
12 | C49A G60U | 0.254
13 | C49A G107U | -4.61
14 | C49A G63U C123A | -0.941
15 | G48U U116C | -1.64
16 | G48C G60U A74U C115U | -2.52
17 | G48U A66G C86A U125G G127C | -3.31
18 | C49A G63A C70A U109C | -7.14
19 | G48C G63A C101U | -0.648
20 | G48C U55G C79U A84C C85G G93U C124A | 0.322
21 | G48U C62A G127C | -3.44
22 | C49A C56G G69U C72A | -3.13
23 | C49G C85A U112G A121G C124U | -0.43
24 | C49A C88A G127U | -2.42

Row | Variant | polymerase ribozyme fitness (log ratio)
25 | G48U U112C | 0.623
26 | C49A A90U A91U A111C A119G U130A U131C | -2.85
27 | G48C G120A | -0.738
28 | C49G C62U G113U | -4.48
29 | C49A C114U | -1.61
30 | C49G C124A | 1.39
31 | C49A A83U | -0.343
32 | G48U U87G A90U | -1.49
33 | C49G G58C C79A | -5.19
34 | G48U C53G | -1.34
35 | G48U C53U | -2.55
36 | G48C U131A | -1.82
37 | C49A A105C A118G U130A | -3.62
38 | G48U G57C | -0.412
39 | G48U U59C | 0.407
40 | G48U U59C C70G | -6.09
41 | C49G G61A U81C G120C | -3.67
42 | C49A U132A | -0.997
43 | C49G G61A A95C | -1.32
44 | G48U A50U C89G U106A U116C C124U | -3.34
45 | G48U G135C | -1.03
46 | G48U G135U | -2.2
47 | C49A U55G C70U C86U A95C C101U C123A G135C | -1.71
48 | G48U C86A | -0.67

Row | Variant | polymerase ribozyme fitness (log ratio)
49 | G48C G110C U116G A119G C123A | -5.26
50 | G48C G57U G69U U92C | -1.31
51 | C49A A50G G52U A105U | -1.36
52 | C49G C70U G113U U125C U131G | -6.12
53 | G48U U59G C80A G120U C123A | -4.73
54 | G48U C49G U96A | -1.45
55 | G48U G93U | -1.29
56 | G48U A121C | -0.0339
57 | C49A C85U G113A A119C | -4.02
58 | G48U C85G C89U | -0.48
59 | G48U C56A G69U C89A C115A A118U | -1.82
60 | G48U C70U C86U G113A | -2.66
61 | C49A C72U G113A G128C | -4.46
62 | G48U U130C U133A | -0.9
63 | C49G C64G G77U A83U G120U | -7.69
64 | G48C G60U A105C U116C | -5.8
65 | G48U C49U C73G G120U | 0.0945
66 | C49G A121C | 0.434
67 | C49A G110U | -1.73
68 | C49A G110A | -1.34
69 | G48U A91U C104A | -5.89
70 | C49A A90U A111C G113A G122C | -3.8
71 | G48U G60U A66C U78G A90G C123A U132A | -1.91
72 | C49G C62A G93U C104A G113U U116A | -7.29

Row | Variant | polymerase ribozyme fitness (log ratio)
73 | C49G A91U C115A G128C U131A | -6.98
74 | G48C U78G | -0.55
75 | C49A C124U U132C | 1.03
76 | G48C C104U G135U | -1.53
77 | C49G C62G A75G C79U | -3.47
78 | G48C C72U U78C C86A C101A C114U C124U | -4.1
79 | G48U A66U C72A U96G U112C | -1.61
80 | C49A G61U U87C C98A | -3.8
81 | C49G C72A C79U G93U | -1.3
82 | C49G C99A G120C G122U | -6.79
83 | G48U G63A G110U | -4.15
84 | G48U C62A U78G | -1.98
85 | C49G C62A C86A U96A | -3.84
86 | C49G C82U C101G | -2.53
87 | C49A G61A C89G U106G C123U | -3.4
88 | C49A C56U A121U | 1.74
89 | C49A G58A | -0.0101
90 | G48C C62U U92G | -3.68
91 | C49A A50U C62U C88G C123U | -0.464
92 | C49A A68U G69C U112C U130A | -4.19
93 | C49A G58C C88G A91U C104G A119G U133G | -7.73
94 | C49G G57U A119G U133G | -0.101
95 | C49G A50C C89U A91C | -2.86
96 | C49G G52C | -0.352

Row | Variant | polymerase ribozyme fitness (log ratio)
97 | G48U G71U U81A C124U | -0.483
98 | G48C C114A | -1.76
99 | G48U C53G C62U C73A U132A | -0.636
100 | G48U A84G | 0.021
101 | G48C C70U C85U G107U | -6.63
102 | G48U G61C U78G C98U | -5.49
103 | G48C G52C | -2.25
104 | C49A C62A G71U G117A U130C | -1.49
105 | C49A U54A G77U | -0.966
106 | C49A U78A U87G U130A | -1.01
107 | G48C U106A | 0.0361
108 | C49G G52A C70A U96C | -4.29
109 | C49A C79A | -3.94
110 | C49G A50U | -1.05
111 | G48C G60C | -1.63
112 | G48C G60A | -1.1
113 | G48C G60A C94G C115U | -3.74
114 | G48U U106C G117C | -5.18
115 | G48C G61U C98U U112C | -1.23
116 | C49G C62A | -1.32
117 | G48U G122A | -1.27
118 | C49A C80A U112A | -5.57
119 | C49A C72G U132C | -0.77
120 | G48U C98U | -1.96

Row | Variant | polymerase ribozyme fitness (log ratio)
121 | G48C G69A | -3.69
122 | G48U C101A U116G U130A | -4.7
123 | G48U G58U C72U | 0.601
124 | C49A G117C | -3.75
125 | C49A C56A | -0.845
126 | C49G C70U C85G A105U | -3.38
127 | C49A C72A A83C C101A A121U | 0.741
128 | G48C U87G A95C | -3
129 | G48C G51U C73U C76A G77A A119G | -6.51
130 | C49A G77C | -0.848
131 | C49A G61A G110U U125C | -2.14
132 | C49A C86A | -2.07
133 | C49A C70A C73U U87A | -3.37
134 | C49G C56A G71A G93C | -6.41
135 | C49A C62U C85U C124G | 1.34
136 | C49A G69A U106A | -2.86
137 | C49G A68G G117U | -5.87
138 | C49A C53U G61A C101A | -0.913
139 | G48U G69C C86G G113U | -6.36
140 | G48C G57U U96C | -0.888
141 | C49A G63U C97G U132A | -6.24
142 | C49G G57U A83U G110A A121G | -1.99
143 | G48U U59A G60U C79U U92G G122A C123A | -5.96
144 | G48U U109G | -4.7

Row | Variant | polymerase ribozyme fitness (log ratio)
145 | G48U U109A | -5.53
146 | G48U C89G | -1.92
147 | G48U G69A C85G | -3.42
148 | G48U C73G G110U G120U | -4.95
149 | G48U G69C | -2.22
150 | C49A C73A | 0.508
151 | C49A C73G | -1.88
152 | G48C C123G | 0.677
153 | C49A C79A A119G | -2.87
154 | G48C C101U U109G | -5.98
155 | G48C G71C | -0.845
156 | C49A C89U U92C A95G U96A G113A U133A | -3.76
157 | G48C C70U C124A | 0.758
158 | G48U C72G | -1.7
159 | C49A C89A | -1.76
160 | G48U C76U C89G C124U G128U U132C | -2.96
161 | G48U C62U | -0.185
162 | C49A U96C | -0.589
163 | C49A U96A | -1.29
164 | C49G A68G G77U | -4.38
165 | C49G C123G | 1.3
166 | C49G C123A | -0.0129
167 | G48U G71U U96C | -1.48
